Data taken from patent CN115819579A (UNIV ZHEJIANG, dated 2023).

How the values were obtained:
IL-17A重组蛋白 = target: T1, IL-17A重组蛋白 (UniProt Q16552 24-155, limits assumed); assay: BLI (Fortebio)
T1 construct: also called 重组蛋白IL-17A; IL-17A抗原
T1 sequence (looked up): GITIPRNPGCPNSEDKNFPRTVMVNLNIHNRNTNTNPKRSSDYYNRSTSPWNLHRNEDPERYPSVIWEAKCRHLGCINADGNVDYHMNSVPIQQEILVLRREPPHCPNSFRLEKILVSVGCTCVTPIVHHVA

牛血清白蛋白(BSA) = target: T2, 牛血清白蛋白(BSA) (bovine, UniProt P02769 25-607); assay: ELISA, BSA coated at 1 μg/ml, anti-His detection, OD450
T2 construct: Control antigen of the specificity ELISA
T2 sequence (P02769 25-607 limits assumed): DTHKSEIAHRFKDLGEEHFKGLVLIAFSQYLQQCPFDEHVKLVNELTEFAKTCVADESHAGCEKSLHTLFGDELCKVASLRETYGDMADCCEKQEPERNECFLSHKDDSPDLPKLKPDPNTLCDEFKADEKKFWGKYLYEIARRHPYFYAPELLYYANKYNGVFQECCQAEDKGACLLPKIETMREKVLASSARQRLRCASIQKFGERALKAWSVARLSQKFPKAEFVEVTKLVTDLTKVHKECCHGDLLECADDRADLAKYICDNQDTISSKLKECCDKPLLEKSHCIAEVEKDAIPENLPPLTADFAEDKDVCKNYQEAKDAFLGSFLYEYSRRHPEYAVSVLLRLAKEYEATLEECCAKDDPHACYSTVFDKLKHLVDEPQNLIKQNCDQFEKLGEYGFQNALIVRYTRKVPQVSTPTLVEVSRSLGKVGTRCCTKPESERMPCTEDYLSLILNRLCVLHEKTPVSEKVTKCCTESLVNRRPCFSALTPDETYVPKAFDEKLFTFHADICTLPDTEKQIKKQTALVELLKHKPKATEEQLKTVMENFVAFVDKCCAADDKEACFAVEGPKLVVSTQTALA

B1: 全人源抗IL-17A单链抗体No.34 (scFv)
scFv: MQVQLVQSGAEVKPPGASVKVSCKASGYTFTTHKIQWVRQAPGQRLEWMGWINTDKGDTKYSQKFQGRVTITSDTSASTAFMDLSSLRSEDTAVYYCARDGEGYAPFGMDVWGQGTTVTVSSGGGGSGGGGSGGGGSDIRLTQSPPSLSASVGDRVTITCRASQTIGSHLNWYQQKPGKAPKLLIYAASSLQSGVPSRFSGSGSGTDFTLTISSLQPEDFATYYCQQSHSGLTFGGGTKVDIK
notes: also called anti-IL-17A scFv No.34; Anti-IL-17A scFv No.34
Question: Which results are given for B1?
Answer: Kd (IL-17A重组蛋白): 110 nM; binding result (牛血清白蛋白(BSA)): no binding (tested: 0.1μg/ml)
